# Test results reported in patent US11999805.
# Columns and labels:
# [1] = target: SpyCas9 (S. pyogenes) (UniProt Q99ZW2); test: cell-based or functional assay
# [2] = test system: T1, 50-2-13
# T1 sequence: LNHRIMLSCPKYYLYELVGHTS
# [3] = test system: T2, 50-2-16
# T2 sequence: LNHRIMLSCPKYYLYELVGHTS
# [4] = test system: T3, 50-20-14
# T3 sequence: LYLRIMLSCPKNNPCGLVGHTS
# [5] = test system: T4, 60-1-10
# T4 sequence: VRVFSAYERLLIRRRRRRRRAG
# [6] = test system: T5, 60-1-56
# T5 sequence: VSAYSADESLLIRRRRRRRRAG
# [7] = test system: T6, 63-2-27
# T6 sequence: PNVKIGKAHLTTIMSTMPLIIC
# [8] = test system: T7, 63-2-87
# T7 sequence: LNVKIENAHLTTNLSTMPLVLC
# [9] = test system: T8, 82-2-12
# T8 sequence: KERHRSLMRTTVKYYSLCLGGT
# [10] = test system: T9, 82-2-21
# T9 sequence: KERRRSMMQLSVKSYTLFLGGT
# [11] = test system: T10, 82-2-28
# T10 sequence: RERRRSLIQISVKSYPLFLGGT
# [12] = test system: T11, 90-1-18
# T11 sequence: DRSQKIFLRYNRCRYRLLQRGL
# [13] = test system: T12, 90-1-27
# T12 sequence: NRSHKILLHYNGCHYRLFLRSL
# [14] = test system: T13, 90-1-50
# T13 sequence: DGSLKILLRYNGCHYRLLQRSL
# [15] = test system: T14, 90-2-18
# T14 sequence: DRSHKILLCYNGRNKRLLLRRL
# [16] = test system: T15, 90-2-5
# T15 sequence: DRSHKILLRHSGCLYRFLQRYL
# [17] = test system: T16, 99-1-1
# T16 sequence: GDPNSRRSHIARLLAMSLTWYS
# [18] = test system: T17, 99-2-2
# T17 sequence: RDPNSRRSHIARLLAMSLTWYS
# [19] = test system: T18, Peptide 15
# T18 sequence: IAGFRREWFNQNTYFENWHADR
# [20] = test system: T19, Peptide 50
# T19 sequence: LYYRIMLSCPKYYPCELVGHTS
# [21] = test system: T20, Peptide 60
# T20 sequence: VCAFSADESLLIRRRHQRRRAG
# [22] = test system: T21, Peptide 61
# T21 sequence: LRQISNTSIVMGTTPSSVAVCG
# [23] = test system: T22, Peptide 63
# T22 sequence: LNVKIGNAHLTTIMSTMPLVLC
# [24] = test system: T23, Peptide 73
# T23 sequence: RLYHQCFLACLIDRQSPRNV
# [25] = test system: T24, Peptide 80
# T24 sequence: TESIRSYFAMTIRRNH
# [26] = test system: T25, Peptide 82
# T25 sequence: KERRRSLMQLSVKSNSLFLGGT
# [27] = test system: T26, Peptide 90
# T26 sequence: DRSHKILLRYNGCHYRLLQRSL
# [28] = test system: T27, Peptide 91
# T27 sequence: VYDFYRMLSHFFLKGPSR
# [29] = test system: T28, Peptide 99
# T28 sequence: RRSHIAWLLAMSLTWYS
substance,measurement,setting,value
AcrIIA4,"reduced editing (compared to plasmid control), A549 GFP reporter cells",[1],74%
SpyCas9,"decrease in cleavage-based fluorescence at 200 µM peptide, FRET assay",[2],All of the MPs drastically reduced SpyCas9 substrate cleavage at 200 µM with a greater than 88% decrease in fluorescence
same,"substrate cleavage, denaturing 15% urea PAGE, peptide 200 µM",[2],17 hits were identified that reduced fluorescence and substrate cleavage in the Cas9 cleavage reaction (visualized by Gel) at 200 µM
same,"decrease in cleavage-based fluorescence at 200 µM peptide, FRET assay",[3],All of the MPs drastically reduced SpyCas9 substrate cleavage at 200 µM with a greater than 88% decrease in fluorescence
same,"substrate cleavage, denaturing 15% urea PAGE, peptide 200 µM",[3],17 hits were identified that reduced fluorescence and substrate cleavage in the Cas9 cleavage reaction (visualized by Gel) at 200 µM
same,"decrease in cleavage-based fluorescence at 200 µM peptide, FRET assay",[4],All of the MPs drastically reduced SpyCas9 substrate cleavage at 200 µM with a greater than 88% decrease in fluorescence
same,"substrate cleavage, denaturing 15% urea PAGE, peptide 200 µM",[4],17 hits were identified that reduced fluorescence and substrate cleavage in the Cas9 cleavage reaction (visualized by Gel) at 200 µM
same,"decrease in cleavage-based fluorescence at 200 µM peptide, FRET assay",[5],All of the MPs drastically reduced SpyCas9 substrate cleavage at 200 µM with a greater than 88% decrease in fluorescence
same,"substrate cleavage, denaturing 15% urea PAGE, peptide 200 µM",[5],17 hits were identified that reduced fluorescence and substrate cleavage in the Cas9 cleavage reaction (visualized by Gel) at 200 µM
same,"decrease in cleavage-based fluorescence at 200 µM peptide, FRET assay",[6],All of the MPs drastically reduced SpyCas9 substrate cleavage at 200 µM with a greater than 88% decrease in fluorescence
same,"substrate cleavage, denaturing 15% urea PAGE, peptide 200 µM",[6],17 hits were identified that reduced fluorescence and substrate cleavage in the Cas9 cleavage reaction (visualized by Gel) at 200 µM
same,"decrease in cleavage-based fluorescence at 200 µM peptide, FRET assay",[7],All of the MPs drastically reduced SpyCas9 substrate cleavage at 200 µM with a greater than 88% decrease in fluorescence
same,"substrate cleavage, denaturing 15% urea PAGE, peptide 200 µM",[7],17 hits were identified that reduced fluorescence and substrate cleavage in the Cas9 cleavage reaction (visualized by Gel) at 200 µM
same,"decrease in cleavage-based fluorescence at 200 µM peptide, FRET assay",[8],All of the MPs drastically reduced SpyCas9 substrate cleavage at 200 µM with a greater than 88% decrease in fluorescence
same,"substrate cleavage, denaturing 15% urea PAGE, peptide 200 µM",[8],17 hits were identified that reduced fluorescence and substrate cleavage in the Cas9 cleavage reaction (visualized by Gel) at 200 µM
same,"decrease in cleavage-based fluorescence at 200 µM peptide, FRET assay",[9],All of the MPs drastically reduced SpyCas9 substrate cleavage at 200 µM with a greater than 88% decrease in fluorescence
same,"substrate cleavage, denaturing 15% urea PAGE, peptide 200 µM",[9],17 hits were identified that reduced fluorescence and substrate cleavage in the Cas9 cleavage reaction (visualized by Gel) at 200 µM
same,"decrease in cleavage-based fluorescence at 200 µM peptide, FRET assay",[10],All of the MPs drastically reduced SpyCas9 substrate cleavage at 200 µM with a greater than 88% decrease in fluorescence
same,"substrate cleavage, denaturing 15% urea PAGE, peptide 200 µM",[10],17 hits were identified that reduced fluorescence and substrate cleavage in the Cas9 cleavage reaction (visualized by Gel) at 200 µM
same,"decrease in cleavage-based fluorescence at 200 µM peptide, FRET assay",[11],All of the MPs drastically reduced SpyCas9 substrate cleavage at 200 µM with a greater than 88% decrease in fluorescence
same,"substrate cleavage, denaturing 15% urea PAGE, peptide 200 µM",[11],17 hits were identified that reduced fluorescence and substrate cleavage in the Cas9 cleavage reaction (visualized by Gel) at 200 µM
same,"decrease in cleavage-based fluorescence at 200 µM peptide, FRET assay",[12],All of the MPs drastically reduced SpyCas9 substrate cleavage at 200 µM with a greater than 88% decrease in fluorescence
same,"substrate cleavage, denaturing 15% urea PAGE, peptide 200 µM",[12],17 hits were identified that reduced fluorescence and substrate cleavage in the Cas9 cleavage reaction (visualized by Gel) at 200 µM
same,"decrease in cleavage-based fluorescence at 200 µM peptide, FRET assay",[13],All of the MPs drastically reduced SpyCas9 substrate cleavage at 200 µM with a greater than 88% decrease in fluorescence
same,"substrate cleavage, denaturing 15% urea PAGE, peptide 200 µM",[13],17 hits were identified that reduced fluorescence and substrate cleavage in the Cas9 cleavage reaction (visualized by Gel) at 200 µM
same,"decrease in cleavage-based fluorescence at 200 µM peptide, FRET assay",[14],All of the MPs drastically reduced SpyCas9 substrate cleavage at 200 µM with a greater than 88% decrease in fluorescence
same,"substrate cleavage, denaturing 15% urea PAGE, peptide 200 µM",[14],17 hits were identified that reduced fluorescence and substrate cleavage in the Cas9 cleavage reaction (visualized by Gel) at 200 µM
same,"decrease in cleavage-based fluorescence at 200 µM peptide, FRET assay",[15],All of the MPs drastically reduced SpyCas9 substrate cleavage at 200 µM with a greater than 88% decrease in fluorescence
same,"substrate cleavage, denaturing 15% urea PAGE, peptide 200 µM",[15],17 hits were identified that reduced fluorescence and substrate cleavage in the Cas9 cleavage reaction (visualized by Gel) at 200 µM
same,"decrease in cleavage-based fluorescence at 200 µM peptide, FRET assay",[16],All of the MPs drastically reduced SpyCas9 substrate cleavage at 200 µM with a greater than 88% decrease in fluorescence
same,"substrate cleavage, denaturing 15% urea PAGE, peptide 200 µM",[16],17 hits were identified that reduced fluorescence and substrate cleavage in the Cas9 cleavage reaction (visualized by Gel) at 200 µM
same,"decrease in cleavage-based fluorescence at 200 µM peptide, FRET assay",[17],All of the MPs drastically reduced SpyCas9 substrate cleavage at 200 µM with a greater than 88% decrease in fluorescence
same,"substrate cleavage, denaturing 15% urea PAGE, peptide 200 µM",[17],17 hits were identified that reduced fluorescence and substrate cleavage in the Cas9 cleavage reaction (visualized by Gel) at 200 µM
same,"decrease in cleavage-based fluorescence at 200 µM peptide, FRET assay",[18],All of the MPs drastically reduced SpyCas9 substrate cleavage at 200 µM with a greater than 88% decrease in fluorescence
same,"substrate cleavage, denaturing 15% urea PAGE, peptide 200 µM",[18],17 hits were identified that reduced fluorescence and substrate cleavage in the Cas9 cleavage reaction (visualized by Gel) at 200 µM
same,"% activity, FRET cleavage assay",[19],Peptide15 significantly reduced activity of CjeCas9 and SpyCas9 and SauCas9 at 200 µM (P<0.01)
same,"substrate cleavage, FRET assay, peptide 200 to 12.5 µM",[19],the peptides inhibited substrate cleavage in a peptide concentration-dependent manner
same,"substrate cleavage, FRET assay, peptide 200 to 12.5 µM",[20],the peptides inhibited substrate cleavage in a peptide concentration-dependent manner
same,"% activity, FRET cleavage assay",[21],"Peptide 60, 90, and 91 significantly reduced activity of SauCas9 and SpyCas9 at 200 µM (P<0.005)"
same,"substrate cleavage, FRET assay, peptide 200 to 12.5 µM",[21],the peptides inhibited substrate cleavage in a peptide concentration-dependent manner
same,"substrate cleavage, FRET assay, peptide 200 to 12.5 µM",[22],the peptides inhibited substrate cleavage in a peptide concentration-dependent manner
same,"substrate cleavage, FRET assay, peptide 200 to 12.5 µM",[23],the peptides inhibited substrate cleavage in a peptide concentration-dependent manner
same,"substrate cleavage, FRET assay, peptide 200 to 12.5 µM",[24],the peptides inhibited substrate cleavage in a peptide concentration-dependent manner
same,"substrate cleavage, FRET assay, peptide 200 to 12.5 µM",[25],the peptides inhibited substrate cleavage in a peptide concentration-dependent manner
same,"substrate cleavage, FRET assay, peptide 200 to 12.5 µM",[26],the peptides inhibited substrate cleavage in a peptide concentration-dependent manner
same,"% activity, FRET cleavage assay",[27],"Peptide 60, 90, and 91 significantly reduced activity of SauCas9 and SpyCas9 at 200 µM (P<0.005)"
same,"substrate cleavage, FRET assay, peptide 200 to 12.5 µM",[27],the peptides inhibited substrate cleavage in a peptide concentration-dependent manner
same,"% activity, FRET cleavage assay",[28],"Peptide 60, 90, and 91 significantly reduced activity of SauCas9 and SpyCas9 at 200 µM (P<0.005)"
same,"substrate cleavage, FRET assay, peptide 200 to 12.5 µM",[28],the peptides inhibited substrate cleavage in a peptide concentration-dependent manner
same,"% activity, FRET cleavage assay",[29],Peptide 99 significantly reduced activity of all three Cas9 variants at 100 and 200 µM (P<0.005)
same,"substrate cleavage, FRET assay, peptide 200 to 12.5 µM",[29],the peptides inhibited substrate cleavage in a peptide concentration-dependent manner
